Source: paper PMC12487865

Target: FGFR1 (UniProt P16092)
Assay: co-IP, Nf2-Flag mutants with FGFR1-HA
Conditions: reference: wild-type Nf2

| binding against the reference (sites S315) | binding against the reference (sites S518) | Substance |
| --- | --- | --- |
| lost | – | Nf2 (Merlin) (from UniProt P46662) S315A |
| – | lost | Nf2 (Merlin) (from UniProt P46662) S518A |
